This note sets out measurements from patent US6350573B1, “Methods for identifying herbicidal agents that inhibit D1 protease” (E. I. du Pont de Nemours and Company, priority 1998, dated 2002).

The test system of series [1] is wheat D1 protease. Kind of series: In vitro high-throughput assay with LF-1 thylakoid membrane fragments containing pre-D1, detecting the mature D1 enzyme product. Format: biochemical. Particulars: 7 mM Z-LDLA-CMK; D1 protease pre-incubated with it for 1 h at pH 7.0; same assay without inhibitor 0.141 OD; without D1P 0.023 OD. An excerpt: The assay was capable of detecting both type of products. Because this assay used isolated thylakoid membrane containing the D1 pre-protein substrate the assay could be run at a pH similar to that found in the whole plant.
The PSII-enriched thylakoid membrane fragment was isolated from Scenedesmus LF-1 mutant cells using a mild TRITON X-100-treatment as follows:
Scenedesmus cells were broken in a “bead-beater” (Biospec Products, Bartlesville, Okla.) in an ice-water bath with 1-mm diameter glass beads using 10 bursts of 45 sec each. […]
When using the type 2 HRP conjugated primary antibody […] of colorimetric substrate, TMB (Kirkgaard & Perry Laboratories, Inc., Gaithersburg, Md.) or fluorescent substrate, N-acetyl-3,7-dihydroxyphenoxazine (A6550, Molecular Probes, Inc., Eugene, Oreg.) or chemiluminescence substrate, BM Chemiluminescence ELISA Reagent (Boehringer Mannheim Corp., Indianapolis, Ind.) was added to each well. […] Next the substrate was transfered to a regular plastic 96-well microtiter plate using the manifold and vacuum and then read for absorption or fluorescence or chmiluminescence intensity. […]

The target in series [2] is D1 pre-protein (unprocessed D1 polypeptide) of the Scenedesmus obliquus LF-1 mutant, in PSII core complexes or thylakoid membrane fragments.
Series [3] has as its target T1, internally quenched fluorescent substrate Ac-NAHN(K-Dnp)PLDLAAVE(K-Mca)PSING-OH.
T1 chain: AHNKPLDLAAVEKPSING

Where a SMILES comes first, the peptide text is derived from it. The star is where a group is joined. Cbz = O=C(OCc1ccccc1)*; CH2Cl = ClC*

On to `CC(C)C[C@H](NC(=O)OCc1ccccc1)C(=O)N[C@@H](CC(=O)O)C(=O)N[C@@H](CC(C)C)C(=O)N[C@@H](C)C(=O)CCl` [Z-LDLA-CMK, Z-Leu-Asp-Leu-Ala-CH2Cl] (Cbz-LDLA-CH2Cl), for which the “Type2 AB and TMB, Absorption change, With D1P” value in series [1] is 0.081 OD.

B1: wheat D1 protease purified from wheat leaves (Triticum aestivum, var. Fidel) (protein)
chain: LTEENLLFLEAWRAVDRAYYDKSFNGQSWFRYRERALRDDPMNTRQETYAAIKKMLATLDDPFTRLLEPEKFKSLRSGTQGALTGVGLSIGYPLALKGSPAGLSVMSAAPGGPAEKAGIVSGDVILAIDDTSAQDMDIYDAADRLQGPEGSSIDLTILSGADTRHVVLKRERYTLNPVRSRMCEIPGSEDSSKIGYIKLTTFNQNAAGSVKEAIKKLREKNVKAFVLDLRNNSGGLFPEGIEIAKIWMDKGVIVYICDSRGVRDIYEADGASTIAASEPLVVLVNKGTASASEILAGALKDNKRAVVYGEPTYGKGKIQSVFALSDGSGLAVTVARYETPAHTDIDKVGVTPDRPLPASFPTDEDGFCSCLRDPASCNLNAARLFVRS
In series [2], B1 showed a Type1 AB and ATTOPHOS (Fluorescence intensity), With D1P of 1070 RU; a Type1 AB and PNP (Absorbance OD 450-650), With D1P of 0.365 OD; a Type2 AB and A6550 (Fluorescence intensity), With D1P of 263 RU; a Type2 AB and BM (Chemiluminescence intensity), With D1P of 33 RU. Further, in series [2], the Type2 AB and TMB (Absorbance at OD 650-450), With D1P amounted to 0.141 OD; the “fluorescamine fluorescence of the released C-terminal D1-tail, Well with D1 protease” value is recorded as 515 ± 10 relative units. Further, in series [3], the “fluorescence intensity of the internally quenched substrate (excitation 320 nm, emission 409 nm)” value is “samples containing active enzyme were measured at 3000 fluorescence units”.

B2: recombinant wheat D1 protease expressed in E. coli from pET-32a(+) (thioredoxin-D1 protease fusion, refolded) (protein)
chain: LTEENLLFLEAWRAVDRAYYDKSFNGQSWFRYRERALRDDPMNTRQETYAAIKKMLATLDDPFTRLLEPEKFKSLRSGTQGALTGVGLSIGYPLALKGSPAGLSVMSAAPGGPAEKAGIVSGDVILAIDDTSAQDMDIYDAADRLQGPEGSSIDLTILSGADTRHVVLKRERYTLNPVRSRMCEIPGSEDSSKIGYIKLTTFNQNAAGSVKEAIKKLREKNVKAFVLDLRNNSGGLFPEGIEIAKIWMDKGVIVYICDSRGVRDIYEADGASTIAASEPLVVLVNKGTASASEILAGALKDNKRAVVYGEPTYGKGKIQSVFALSDGSGLAVTVARYETPAHTDIDKVGVTPDRPLPASFPTDEDGFCSCLRDPASCNLNAARLFVRS
With B2, the “specific activity in the microtiter plate ELISA assay” value in series [2] is “The specific activity of the recombinant enzyme, expressed in relative units, is close to that of the natural enzyme isolated from wheat leaves”.

B3: D1 protease from Scenedesmus obliquus (protein)
chain: VTSEQLLFLEAWRAVDRAYVDKSFNGQSWFKLRETYLKKEPMDRRAQTYDAIRKLLAVLDDPFTRFLEPSRLAALRRGTAGSVTGVGLEITYDGGSGKDVVVLTPAPGGPAEKAGARAGDVIVTVDGTAVKGLSLYDVSDLLQGEADSQVEVVLHAPGAPSNTRTLQLTRQKVTINPVTFTTCSNVAAAALPPGAAKQQLGYVRLATFNSNTTAAAQQAFTELSKQGVAGLVLDIRNNGGGLFPAGVNVARMLVDRGDLVLIADSQGIRDIYSADGNSIDSATPLVVLVNRGTASASEVLAGALKDSKRGLIAGERTFGKGLIQTVVDLSDGSGVAVTVARYQTPAGVDINKIGVSPDVQLDPEVLPTDLEGVCRVLGSDAAPRLFG
In the case of B3, the “microtiter plate ELISA of D1 protease activity (color reaction, percent of pre-D1 cleaved)” value in series [2] is “the intensity of the color reaction is shown to be proportional to enzyme concentration up to approximately 20% of pre-D1 cleaved”.
